Measurements: article PMC7293217, “TECPR1 promotes aggrephagy by direct recruitment of LC3C autophagosomes to lysosomes” (Nature Communications, 2020)

Target: T1, TECPR1 (purified, on GUVs) (human, UniProt Q7Z6L1 1-1165)
T1 construct: TECPR1, human, full-length cDNA of isoform 1, cloned into pCoofy29; TECPR1 could be labeled on native cysteines (Alexa Fluor 488 or CF405M); also called recombinant TECPR1; source: High Five insect cells, purified (Ni-NTA, PreScission, Superdex 200); not shown: His6, N-terminal, cleaved; MBP, N-terminal, cleaved
T1 sequence (looked up): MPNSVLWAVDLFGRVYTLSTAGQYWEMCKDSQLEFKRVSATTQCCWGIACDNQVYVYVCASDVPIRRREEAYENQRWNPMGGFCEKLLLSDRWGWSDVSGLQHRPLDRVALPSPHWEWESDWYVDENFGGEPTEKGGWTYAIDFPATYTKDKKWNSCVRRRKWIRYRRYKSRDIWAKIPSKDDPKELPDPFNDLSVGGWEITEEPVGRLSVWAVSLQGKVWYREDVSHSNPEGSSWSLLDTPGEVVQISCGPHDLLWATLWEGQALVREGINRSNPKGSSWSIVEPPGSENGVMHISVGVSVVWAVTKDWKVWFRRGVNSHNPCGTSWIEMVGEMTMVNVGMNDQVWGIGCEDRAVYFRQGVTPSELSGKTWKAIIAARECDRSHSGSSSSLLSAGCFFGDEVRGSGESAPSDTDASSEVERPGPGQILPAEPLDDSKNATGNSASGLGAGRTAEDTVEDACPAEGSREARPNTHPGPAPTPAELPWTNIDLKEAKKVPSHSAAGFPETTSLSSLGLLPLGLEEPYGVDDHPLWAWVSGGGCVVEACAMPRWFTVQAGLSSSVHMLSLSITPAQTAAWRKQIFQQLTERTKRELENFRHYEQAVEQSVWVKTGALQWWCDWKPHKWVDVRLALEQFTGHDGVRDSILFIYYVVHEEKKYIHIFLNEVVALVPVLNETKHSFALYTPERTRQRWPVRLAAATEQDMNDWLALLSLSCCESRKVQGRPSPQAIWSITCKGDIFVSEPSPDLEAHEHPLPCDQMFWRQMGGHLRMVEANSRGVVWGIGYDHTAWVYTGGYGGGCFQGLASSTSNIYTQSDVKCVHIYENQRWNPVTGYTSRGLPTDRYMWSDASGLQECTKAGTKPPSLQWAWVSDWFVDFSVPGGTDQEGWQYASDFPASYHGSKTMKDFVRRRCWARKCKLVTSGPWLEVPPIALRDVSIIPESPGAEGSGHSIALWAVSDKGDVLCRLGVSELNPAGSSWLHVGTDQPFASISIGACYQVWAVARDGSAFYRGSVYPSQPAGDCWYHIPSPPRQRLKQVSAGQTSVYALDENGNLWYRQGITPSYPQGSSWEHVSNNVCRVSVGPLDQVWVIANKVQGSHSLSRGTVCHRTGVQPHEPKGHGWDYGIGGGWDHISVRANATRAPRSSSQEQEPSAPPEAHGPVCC
Assay: recruitment of SUVs to GUVs seen by fluorescence microscopy; reconstitution with purified proteins: Alexa488-LC3C conjugated to SUVs coincubated with GUVs decorated with TECPR1; GUVs without TECPR1 as control
Settings: both partners purified

B1: Alexa488-labeled LC3C conjugated to SUVs (natural protein, human, UniProt Q9BXW4 1-126, looked up)
chain: MPPPQKIPSVRPFKQRKSLAIRQEEVAGIRAKFPNKIPVVVERYPRETFLPPLDKTKFLVPQELTMTQFLSIIRSRMVLRATEAFYLLVNNKSLVSMSATMAEIYRDYKDEDGFVYMTYASQETFG
modifications: Alexa Fluor 488 C5 maleimide on the introduced N-terminal cysteine; conjugated to SUVs
B1: binds.
